Target: T1, GST-tagged CIP2A Armadillo repeat domain (ArmRD, aa 1-559) (human, UniProt Q8TCG1 1-559)
T1 construct: CIP2A, human, aa 1-559 (bases 1 through 1677 of the full length cDNA) cloned into pGEX-4T3; the results give the ArmRD as amino acids 1-560; the methods give the construct as aa 1-559; also called GST-ArmRP of CIP2A; GST-tagged ArmRD
Experiment: pull-down; 800 µg CHO protein extract with HA-TOPBP1 aa740-899 bound to anti-HA agarose beads (1 h, 4 °C), unbound fraction washed away, 5 µg purified GST-tagged ArmRD added for 90 min at 4 °C, washed 3 x 15 min with cold PBS; Western blot
Details: both partners purified

- binding result: binds
B1: HA-tagged TOPBP1 aa740-899 fragment expressed in ExpiCHO-S cells (domain or fragment, human, UniProt Q92547 740-899, looked up)
chain: NSTKEERSLETEITNGINLNSDTAEHPGTRLQTHRKTVVTPLDMNRFQSKAFRAVVSQHARQVAASPAVGQPLQKEPSLHLDTPSKFLSKDKLFKPSFDVKDALAALETPGRPSQQKRKPSTPLSEVIVKNLQLALANSSRNAVALSASPQLKEAQSEKE
notes: Same construct as m1, other host; source: ExpiCHO-S, transfected; not shown: HA, N-terminal, kept
